Assay results taken from patent publication US20210364527A1.

How the values were obtained:
[1] = biological target: FA peptide (N-terminal phenylalanine, penultimate alanine; rest of sequence not given); test: stopped-flow, complex mixed with excess unlabelled trap peptide
[2] = biological target: T1, LA peptide (N-terminal leucine, penultimate alanine; rest of sequence not given); test: as above
[3] = biological target: fluorescently-labeled peptide containing N-terminal phospho-tyrosine; test: single-molecule, SH2 variant immobilized in sample wells, labeled peptide in solution; top panel
[4] = biological target: fluorescently-labeled peptide containing N-terminal phospho-tyrosine; test: single-molecule, SH2 variant immobilized in sample wells, labeled peptide in solution; bottom panel
[5] = biological target: peptide containing N-terminal phospho-serine; test: negative control, single-molecule, SH2 variant immobilized, labeled phospho-serine peptide in solution; top trace
[6] = biological target: peptide containing N-terminal phospho-serine; test: negative control, single-molecule, SH2 variant immobilized, labeled phospho-serine peptide in solution; bottom trace
[7] = biological target: peptide containing N-terminal phospho-serine; test: negative control, single-molecule, SH2 variant immobilized, labeled phospho-serine peptide in solution; middle trace
[8] = biological target: fluorescently-labeled peptide containing N-terminal phospho-tyrosine; test: single-molecule, SH2 variant immobilized in sample wells, labeled peptide in solution; top plot (top trace of FIG. 22A)
[9] = biological target: fluorescently-labeled peptide containing N-terminal phospho-tyrosine; test: single-molecule, SH2 variant immobilized in sample wells, labeled peptide in solution; bottom plot (bottom trace of FIG. 22A)
[10] = biological target: fluorescently-labeled peptide containing N-terminal phospho-tyrosine; test: single-molecule, SH2 variant immobilized in sample wells, labeled peptide in solution; middle plot (middle trace of FIG. 22A)
[11] = biological target: IR peptide (N-terminal IR; rest of sequence not given); test: binder-on-chip, run 94158
[12] = biological target: IA peptide (N-terminal isoleucine, penultimate alanine; rest of sequence not given); test: binder-on-chip single-molecule assay
[13] = biological target: IR peptide (N-terminal IR; rest of sequence not given); test: binder-on-chip single-molecule assay
[14] = biological target: T1, LA peptide (N-terminal leucine, …); test: binder-on-chip single-molecule assay
[15] = biological target: T2, N-terminal leucine peptide …; test: peptide-on-chip recognition assay, dye-labelled PS372
T2 sequence (peptide): LAAIAAFAADDDW

[16] = biological target: peptide having an N-terminal (unmodified) tyrosine residue (rest of sequence not given)
[17] = biological target: peptide having an N-terminal phenylalanine residue (rest of sequence not given)
[18] = biological target: peptide having an N-terminal tryptophan residue (rest of sequence not given)
[19] = biological target: polypeptide with a terminal leucine residue (rest of sequence not given)

B1: PS705 (atClpS2-V1-SNAP TAG fusion 2) (designed binder)
chain: MSDSPVDLKPKPKVKPKLERPKLYKVMLLNDDYTPMSFVTVVLKAVFRMSEDTGRRVMMTAHRFGSAVVVVCERDIAETKAKEATDLGKEAGFPLMFTTEPEEHHHHHHHHHHGGGSGGGSGGGSGLNDFFEAQKIEWHEGGGSGGGSGGGSGLNDFFEAQKIEWHEGSAGSAAGSGEFMDKDCEMKRTTLDSPLGKLELSGCEQGLHEIKLLGKGTSAADAVEVPAPAAVLGGPEPLMQATAWLNAYFHQPEAIEEFPVPALHHPVFQQESFTRQVLWKLLKVVKFGEVISYQQLAALAGNPAATAAVKTALSGNPVPILIPCHRVVSSSGAVGGYEGGLAVKEWLLAHEGHRLGKPGLG
- koff [1]: 1.27 s⁻¹

B2: PS704 (atClpS2-V1-2xSNAP TAG fusion) (designed binder)
chain: MSDSPVDLKPKPKVKPKLERPKLYKVMLLNDDYTPMSFVTVVLKAVFRMSEDTGRRVMMTAHRFGSAVVVVCERDIAETKAKEATDLGKEAGFPLMFTTEPEEGSAGSAAGSGEFMDKDCEMKRTTLDSPLGKLELSGCEQGLHEIKLLGKGTSAADAVEVPAPAAVLGGPEPLMQATAWLNAYFHQPEAIEEFPVPALHHPVFQQESFTRQVLWKLLKVVKFGEVISYQQLAALAGNPAATAAVKTALSGNPVPILIPCHRVVSSSGAVGGYEGGLAVKEWLLAHEGHRLGKPGLGMDKDCEMKRTTLDSPLGKLELSGCEQGLHEIKLLGKGTSAADAVEVPAPAAVLGGPEPLMQATAWLNAYFHQPEAIEEFPVPALHHPVFQQESFTRQVLWKLLKVVKFGEVISYQQLAALAGNPAATAAVKTALSGNPVPILIPCHRVVSSSGAVGGYEGGLAVKEWLLAHEGHRLGKPGLGGSAGSAAGSGEFHHHHHHHHHHGGGSGGGSGGGSGLNDFFEAQKIEWHEGGGSGGGSGGGSGLNDFFEAQKIEWHE
- koff [1]: 0.677 s⁻¹

B3: PS696 (PS557-SNAP TAG fusion) (designed binder)
chain: MPTAASATESAIEDTPAPARPEVDGRTKPKRQPRYHVVLWNDDDHTYQYVVVMLQSLFGHPPERGYRLAKEVDTQGRVIVLTTTREHAELKRDQIHAFGYDRLLARSKGSMKASIEAEEGSAGSAAGSGEFMDKDCEMKRTTLDSPLGKLELSGCEQGLHEIKLLGKGTSAADAVEVPAPAAVLGGPEPLMQATAWLNAYFHQPEAIEEFPVPALHHPVFQQESFTRQVLWKLLKVVKFGEVISYQQLAALAGNPAATAAVKTALSGNPVPILIPCHRVVSSSGAVGGYEGGLAVKEWLLAHEGHRLGKPGLGGSAGSAAGSGEFHHHHHHHHHHGGGSGGGSGGGSGLNDFFEAQKIEWHEGGGSGGGSGGGSGLNDFFEAQKIEWHE
- koff [2]: 0.15 s⁻¹

B4: PS706 (atClpS2-V1-EF fusion) (designed binder)
chain: MSDSPVDLKPKPKVKPKLERPKLYKVMLLNDDYTPMSFVTVVLKAVFRMSEDTGRRVMMTAHRFGSAVVVVCERDIAETKAKEATDLGKEAGFPLMFTTEPEEGSAGSAAGSGEFMIKKYTGDFETTTDLNDCRVWSWGVCDIDNVDNITFGLEIDSFFEWCEMQGSTDIYFHDEKFDGEFMLSWLFKNGFKWCKEAKEERTFSTLISNMGQWYALEICWNVKCTTTKTGKTKKEKQRTIIYDSLKKYPFPVKEIAEAFNFPIKKGEIDYTKERPIGYNPTDDEWDYLKNDIQIMAMALKIQFDQGLTRMTRGSDALGDYQDWVKTTYGKSRFKQWFPVLSLGFDKDLRKAYKGGFTWVNKVFQGKEIGEGIVFDVNSLYPSQMYVRPLPYGTPLFYEGEYKENIDYPLYIQNIKVRFRLKERHIPTIQVKQSSLFIQNEYLESSVNKLGVDELIDLTLTNVDLDLFFEHYDILEIHYTYGYMFKASCDMFKGWIDKWIEVKNTTEGARKANAKGMLNSLYGKFGTNPDITGKVPYMGEDGIVRLTLGEEELRDPVYVPLASFVTAWGRYTTITTAQRCFDNIIYCDTDSIHLTGTEVPEAIEHLVDSKKLGYWKHESTFQRAKFIRQKTYVEEIDGELNVKCAGMPDRIKELVTFDNFEVGFSSYGKLLPKRTQGGVVLVDTMFTIKGSAGSAAGSGEFHHHHHHHHHHGGGSGGGSGGGSGLNDFFEAQKIEWHEGGGSGGGSGGGSGLNDFFEAQKIEWHE
- koff [1]: 0.589 s⁻¹

B5: PS703 (atClpS2-V1-SNAP TAG fusion) (designed binder)
chain: MSDSPVDLKPKPKVKPKLERPKLYKVMLLNDDYTPMSFVTVVLKAVFRMSEDTGRRVMMTAHRFGSAVVVVCERDIAETKAKEATDLGKEAGFPLMFTTEPEEGSAGSAAGSGEFMDKDCEMKRTTLDSPLGKLELSGCEQGLHEIKLLGKGTSAADAVEVPAPAAVLGGPEPLMQATAWLNAYFHQPEAIEEFPVPALHHPVFQQESFTRQVLWKLLKVVKFGEVISYQQLAALAGNPAATAAVKTALSGNPVPILIPCHRVVSSSGAVGGYEGGLAVKEWLLAHEGHRLGKPGLGGSAGSAAGSGEFHHHHHHHHHHGGGSGGGSGGGSGLNDFFEAQKIEWHEGGGSGGGSGGGSGLNDFFEAQKIEWHE
- koff [1]: 0.767 s⁻¹

B6: PS698 (PS557-SNAP TAG fusion 2) (designed binder)
chain: MPTAASATESAIEDTPAPARPEVDGRTKPKRQPRYHVVLWNDDDHTYQYVVVMLQSLFGHPPERGYRLAKEVDTQGRVIVLTTTREHAELKRDQIHAFGYDRLLARSKGSMKASIEAEEHHHHHHHHHHGGGSGGGSGGGSGLNDFFEAQKIEWHEGGGSGGGSGGGSGLNDFFEAQKIEWHEGSAGSAAGSGEFMDKDCEMKRTTLDSPLGKLELSGCEQGLHEIKLLGKGTSAADAVEVPAPAAVLGGPEPLMQATAWLNAYFHQPEAIEEFPVPALHHPVFQQESFTRQVLWKLLKVVKFGEVISYQQLAALAGNPAATAAVKTALSGNPVPILIPCHRVVSSSGAVGGYEGGLAVKEWLLAHEGHRLGKPGLG
- koff [2]: 0.19 s⁻¹

B7: Planctomycetia bacterium ClpS homolog (PS557) (protein)
chain: MPTAASATESAIEDTPAPARPEVDGRTKPKRQPRYHVVLWNDDDHTYQYVVVMLQSLFGHPPERGYRLAKEVDTQGRVIVLTTTREHAELKRDQIHAFGYDRLLARSKGSMKASIEAEE
- koff [2]: 0.22 s⁻¹

B8: H. sapiens Fyn SH2 domain triple mutant superbinder (designed binder)
chain: MGAMDSIQAEEWYFGKLGRKDAERQLLSFGNPRGTFLIRESETVKGAYALSIRDWDDMKGDHVKHYLIRKLDNGGYYITTRAQFETLQQLVQHYSERAAGLSSRLVVPSHK
- mean pulse duration (dashed line of the distribution) [3]: 0.26 s
- mean interpulse duration (dashed line of the distribution) [4]: 0.51 s
- pulse duration, M (median) of one trace [5]: 0.09 s
- pulse duration, μ (mean) of one trace [5]: 0.09 s
- pulse duration, M (median) of one trace [6]: 0.1 s
- pulse duration, μ (mean) of one trace [6]: 0.16 s
- pulse duration, M (median) of one trace [7]: 0.11 s
- pulse duration, μ (mean) of one trace [7]: 0.15 s
- pulse duration, M (median) of one trace [8]: 0.15 s
- pulse duration, μ (mean) of one trace [8]: 0.25 s
- pulse duration, M (median) of one trace [9]: 0.17 s
- pulse duration, μ (mean) of one trace [9]: 0.26 s
- pulse duration, M (median) of one trace [10]: 0.15 s
- pulse duration, μ (mean) of one trace [10]: 0.23 s

B9: PS372 (ClpS homolog) (protein)
chain: MAFPARGKTAPKNEVRRQPPYNVILLNDDDHTYRYVIEMLQKIFGFPPEKGFQIAEEVDRTGRVILLTTSKEHAELKQDQVHSYGPDPYLGRPCSGSMTCVIEPAV
- Median pulse width [11]: 64 ms
- mean pulse width [11]: 86 ms
- pulse duration [12]: 70 ms
- pulse duration [13]: 83 ms
- mean pulse width [14]: 876 ms
- mean pulse width [15]: 957 ms

B10: Agrobacterium tumifaciens ClpS1 (atClpS1) (protein)
chain: MIAEPICMQGEGDGEDGGTNRGTSVITRVKPKTKRPNLYRVLLLNDDYTPMEFVIHILERFFQKDREAATRIMLHVHQHGVGECGVFTYEVAETKVSQVMDFARQHQHPLQCVMEKK
- mean pulse duration (dashed line of the distribution) [16]: 0.69 s
- mean pulse duration (dashed line of the distribution) [17]: 0.59 s
- mean pulse duration (dashed line of the distribution) [18]: 0.34 s
- mean pulse duration (dashed line of the distribution) [19]: 0.31 s
